From the nanobody polyreactivity screen of Harvey et al. (2022)

Experiment: yeast display, Sf9 membrane polyspecificity reagent, FACS + sequencing; frameworks hold sequencing errors
Outline: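 Sorting gates, low and high (top ~1%), were placed on anti-HA fluorescence to track expression and on streptavidin fluorescence to track reagent binding. A clone's polyreactivity label is taken from the gate it came out of. The reagent was 10% biotinylated, detergent-solubilized Sf9 membrane, applied for 1 hour at 4 °C to galactose-induced yeast display cells.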

Sequence	polyreactivity (PSR sort gate)
QVQLVESGGGLVQAGGSLRLSCAASGSIFYGYDMGWYRQAPGKERELVAAITIGGGTTYYADSVKGRFTISRDNAKNTVYLQMNSLKPEDTAVYYCAAEFYYTIYSNKVGYDYWGQGTQVTVSS	high polyreactivity
QVQLVESGGGLVQAGGSLRLSCAASGSIFYHNAMGWYRQAPGKERELVAAITSRGGRTTYADSVKGRFTISRDNAKNTVYLQMNSLKPEDTAVYYCNAVYTGYSYISRVDYWGQGTQVTVSS	low polyreactivity
QVQLVESGGGLVQAGGSLRLSCAASGSIFYHNSMGWYRQAPGKERELVAAITSGGSTHYADSVKGRFTISRDNAKNTVYLQMNSLKPEDTAVYYCNARDRRRTNLLDYWGQGTQVTVSS	low polyreactivity
QVQLVESGGGLVQAGGSLRLSCAASGSIFYHYAMGWYRQAPGKERELVAAISQSGGGTYYADSVKGRFTISRDNAKNTVYLQMNSLKPEDTAVYYCIRLSKQKQEFDYWGQGTQVTVSW	high polyreactivity
QVQLVESGGGLVQAGGSLRLSCAASGSIFYHYAMGWYRQAPGKERELVAAITITGGSTYYADSVKGRFTISRDNAKNTVYLQMNSLKPEDTAVYYCARKWYVHYNYWGQGTQVTVSS	high polyreactivity
QVQLVESGGGLVQAGGSLRLSCAASGSIFYHYVMGWYRQAPGKERELVAAISSSGRTYYADSVKGRFTISRDNAKNTVYLQMNSLKPEDTAVYYCAAYQKYYLRKYEYWGQGTQVTVSS	low polyreactivity
QVQLVESGGGLVQAGGSLRLSCAASGSIFYINDAMGWYRQPPGKERELVAAISSSDGTTYYADSVKGRFTISRDNAKNTVYLQMNSLKPEDTAGYYCAAETRAVGYDGDYWGQGTQVTVSS	high polyreactivity
QVQLVESGGGLVQAGGSLRLSCAASGSIFYINTMGWYRQPPGKERELVAAINFSDGRTYYADSVKGRFTISRDNAKNTVYLQMNSLKPEDTAVYYCAADVYPSEYDYWGQGTQVTVSS	low polyreactivity
QVQLVESGGGLVQAGGSLRLSCAASGSIFYIYAMGWYRQAPGKERELVAAISWRTSSTYYADSVKGRFTISRDNAKNTVYLQMNSLKPEDTAVYYCAAETWLGSWRQVGMDYWGQGTQVTVSS	high polyreactivity
QVQLVESGGGLVQAGGSLRLSCAASGSIFYKYMGWSRQAPGKERELVAAITWSGGSTYYADSVKGRFTISRDNAKNTVYLQMNSLKPEDPAVYYCAARDYTRYGYGYWGQGTQVTVSS	high polyreactivity
QVQLVESGGGLVQAGGSLRLSCAASGSIFYKYMGWYRQAPGKERELVAAISWSGGRTYYADSVKGRFTISRDNAKNTVYLQMNSLKPEDTAVYYCNRVVLWRIGDKAFEYWGQGTQVTVSS	high polyreactivity
QVQLVESGGGLVQAGGSLRLSCAASGSIFYKYMGWYRQAPGKERELVAAITWSGGSTYYADSVKGRFTISRDNAKNTVYLQMNSLKPEDTAVYYCNADDRHSRVGHSWQDAQFDYWGLGTQVTVSS	high polyreactivity
QVQLVESGGGLVQAGGSLRLSCAASGSIFYKYMGWYRQAPGKERELVAAMTWSGGSTYYADSVKGRFTISRDNAKNTVYLQMNSLKPEDTAVYYCNADDRHSRVGHSWQDAQFDYWGQGTQVTVSS	high polyreactivity
QVQLVESGGGLVQAGGSLRLSCAASGSIFYKYTMGWYRPAPGKERELVAAITKSGGSTYYADSVKGRFTISRDNAKNTVYLQMNSLKPEDTAVYYCAARRYRYYSRGSWGQGTQVTVSS	high polyreactivity
QVQLVESGGGLVQAGGSLRLSCAASGSIFYKYTMGWYRQAPGKERELVAAITKSGGSTYYADSVKGRFTISRDNAKNTVYLQMNSLKPEDTAVYYCAAQIGRSATRGSYGYWGQGTQVTVSS	high polyreactivity
QVQLVESGGGLVQAGGSLRLSCAASGSIFYLNAMGWYRQAPGKERELVAAINSGGTTNYADSVKGRFTISRDNAKNTVYLQMNSLKPEDTAVYYCATDGYYYYYRVYKFDYWGQGTQVTVSS	low polyreactivity
QVQLVESGGGLVQAGGSLRLSCAASGSIFYLYAMGWYRQAPGKERELVAGITWSGGRTYYADSVKGRFTISRDNAKNTVYLQMNSLKPEDTAVYYCAAYASRYRYGYWGQGTQVTVSS	high polyreactivity
QVQLVESGGGLVQAGGSLRLSCAASGSIFYLYTMGWYRQAPWKERELVAGISNGDRTYYADSVKGRFTISRDNAKNTVYLQMNSLKPEDTAVYYCAVTVYWYSRAAEYDYWGQGTQVTVSS	low polyreactivity
QVQLVESGGGLVQAGGSLRLSCAASGSIFYNNAMGWYRQAPGKERELVAAISGSGDSTYYADSVKGRFTISRDNAKNSVYLQMNSLKPEDTAVYYCNATPYVLWWSDMDYWGQGTQVTVSS	high polyreactivity
QVQLVESGGGLVQAGGSLRLSCAASGSIFYNNAMGWYRQAPGKERELVAAISWRGGSTYYADSVKGRFTISRDNAKNTVYLQMNSLKPEDTAVYYCNAGVRYRGFDYWGQGTQVTVSS	high polyreactivity
QVQLVESGGGLVQAGGSLRLSCAASGSIFYNYAMGWYRQAPGKEREFVAAISWSGDTTYYADSVKGRFTISRDNAKNTVYLQMNSLKPEDTAVYYCAAESYIWFWRPYYYWGQGTQVTVSS	low polyreactivity
QVQLVESGGGLVQAGGSLRLSCAASGSIFYNYAMGWYRQAPGKERELVAAIKRSGGITFYADSVKGRFTISRDNAKNTVYLQMNSLKPEVTAVYYCAADRSFGHHFWYTGKRYDYWGQGTKVTVSS	low polyreactivity

Sequence	polyreactivity (PSR sort gate)
QVQLVESGGGLVQAGGSLRLSCAASGSIFYNYAMGWYRQAPGKERQLVATITRSDGSTYYADSVKGRFTISRDNAKNTVYLQMNSLKPEDTAVYYCNADSLWDSAFGYDYWGQGTQVTVSS	low polyreactivity
QVQLVESGGGLVQAGGSLRLSCAASGSIFYPYAMGWYRQAPGKEREFVAVISKGGTNTYYADSVKGRFTISRDNAKNTVYLQMNSLKPEDTAVYYCAARVDTYRAKYYYWGQGTQVTVSS	high polyreactivity
QVQLVESGGGLVQAGGSLRLSCAASGSIFYPYAMGWYRQAPGKERELVAAIRNGGSTYYADSVKGRFTISRDNAKNTVYLQMNSLKPEDTAVYYCAASVRRRHPFEYWGQGTQVTVSS	high polyreactivity
QVQLVESGGGLVQAGGSLRLSCAASGSIFYPYAMGWYRQAPGKERELVAAIRWRGGNTYYADSVKGRFTISRDNAKNTVYLQMNSLKPEDTAVYYCAADGKYLQGFGYYYWGQGTQVTVSS	high polyreactivity
QVQLVESGGGLVQAGGSLRLSCAASGSIFYPYAMGWYRQAPGKERELVAAISDSGDITYYADSVKGRFTISRDNAKNTVYLQMNSLKPEDTAVYYCAADRPWGYDYWGQGTQVSVSS	low polyreactivity
QVQLVESGGGLVQAGGSLRLSCAASGSIFYPYARGWYRQAPGKERELVASITINDGSTYYADSVKGRFTISRDNAKNTVYLQMNSLKPADTAVYYSAVDWLSVTSTIKFEMDYWGQGTQVTVSS	low polyreactivity
QVQLVESGGGLVQAGGSLRLSCAASGSIFYQNAMGWYRQAPGKERELVAAITSSGGSTYYADSVKGRFTISRDNAKNTVYLQMNSLKPEDTAVYYCNKYFSWRPYSYYYWGQGTQVTVSS	high polyreactivity
QVQLVESGGGLVQAGGSLRLSCAASGSIFYQNAMGWYRQAPGKESELVAAISWRGDSTSYADSVKGRFTISRDNAKNTVYLQMNSLKPEDPAVYYCATAHDYAFYRYWYVPSEYNYWGQGTLVTVSS	low polyreactivity
QVQLVESGGGLVQAGGSLRLSCAASGSIFYQYAMGWYRLAPGKERELVARITGSSGSTYYADSVKGRFTISRDNAKNTVYLQKNSLKPEDTAVYYCATDNYLIGDYWGQGTQVTVSS	high polyreactivity
QVQLVESGGGLVQAGGSLRLSCAASGSIFYRNAMGWYRQAPGKERELVAAISASGGSTYYADSVKGRFTISRDNAKITVYLQMNSLKPEDTAVYYCAVEYRKSRSYAPMGYWGQGTQVTVSS	high polyreactivity
QVQLVESGGGLVQAGGSLRLSCAASGSIFYRYAKGWYRQPPGKETELVAAIRTTGGRTYYADSVKGRFTISRDNAKNTVYLQMNSLKPADTAVYYCNALQAGVSYDYWGQGTQVTVSS	high polyreactivity
QVQLVESGGGLVQAGGSLRLSCAASGSIFYRYAMGWSRPAPRKERELVAAISRSGGRTYYADSVKGRFTISRDISKKTVYLQMYSLKAEDTAVYYCADESNVGTDLGGDSWGQGTQVTVSS	high polyreactivity
QVQLVESGGGLVQAGGSLRLSCAASGSIFYRYAMGWYRPAPGKERELVAAITSGGTYYADSVKGRFTISRDNAKNTVYLQMNSLKPEDTAVYYCNRFSYPPSWYDYWGQGTQVTVSS	low polyreactivity
QVQLVESGGGLVQAGGSLRLSCAASGSIFYRYAMGWYRQAPGKERELVAAIRWSGGSTYYADSVKGRFTISRDNAKNTVYLQMNSLKPEDTAVYYCNGTWAYRGHGYWGQGTQVTVSS	low polyreactivity
QVQLVESGGGLVQAGGSLRLSCAASGSIFYRYAMGWYRQAPGKERELVAAISRSGASTYYADSVKGRFTISRDNAKNTVYLQMNSLKPEDTAVYYCNALFSKFTNRYDYWGQGTQVTVSS	high polyreactivity
QVQLVESGGGLVQAGGSLRLSCAASGSIFYRYAMGWYRQAPGKERELVAAISSTGSTYYADSVKGRFTISRDNAKNTVYLQMNSLKPEDTAVYYCAARQGFRSYRRYDYWGQGTQVTVSS	high polyreactivity
QVQLVESGGGLVQAGGSLRLSCAASGSIFYRYAMGWYRQAPGKERELVAAISSTGSTYYADSVKGRFTISRDNAKNTVYLQMNSLKPEDTAVYYCAARQGYRSYRRYDYWGQGTQVTVSS	high polyreactivity
QVQLVESGGGLVQAGGSLRLSCAASGSIFYSNAMGWYRQAPGKERELVAAITLSGRRTYYADSVKGRFTISRDNAKNTVYLQMISLKPEDTADYYCATVPYKTGYKFEYWGQGTQVTVSS	high polyreactivity
QVQLVESGGGLVQAGGSLRLSCAASGSIFYSNAMGWYRQAPGKERELVAAITWSGGSTYYADSVKGRFTFSRDNAKNTVYLQKNSLKPEDTSVYYCNARRNVRQTFGYEDWGQGTQVTVSS	high polyreactivity
QVQLVESGGGLVQAGGSLRLSCAASGSIFYSNVMGWYRLAPGKERELVAAITRGGGTNYADSVKGRFTISRDNAKNTVYLQMNSLKPEDTAVYYCNRDPQKYRWIPRYDYWGQGTQVTVSS	low polyreactivity
QVQLVESGGGLVQAGGSLRLSCAASGSIFYSNVMGWYRQATGKERELVAAIRYSGVGTYYADSVKGRFTISRDNAKNTVYLQMNSLKPEDTAVYYSNAVTKVGYLRRRDYWGQGTQVTVSS	low polyreactivity
